{"source": "patent US20140072613A1", "about": "(published 2014)", "test_in_all_cases": "cell-based or functional assay", "key": {"6SK3β(h)": {"biological_target": "6SK3β(h) (human, UniProt P49841 1-420)"}, "Hck(h)": {"biological_target": "Hck(h) (human, UniProt P08631 251-518, limits assumed)"}, "IRAK1(h)": {"biological_target": "IRAK1(h) (human, UniProt P51617 194-712, limits assumed)"}, "MSK2(h)": {"biological_target": "MSK2(h) (human, UniProt O75676 1-772, limits assumed)"}, "NEK3(h)": {"biological_target": "T1, NEK3(h) (human, UniProt P51956 1-506, limits assumed)", "T1 sequence (looked up)": "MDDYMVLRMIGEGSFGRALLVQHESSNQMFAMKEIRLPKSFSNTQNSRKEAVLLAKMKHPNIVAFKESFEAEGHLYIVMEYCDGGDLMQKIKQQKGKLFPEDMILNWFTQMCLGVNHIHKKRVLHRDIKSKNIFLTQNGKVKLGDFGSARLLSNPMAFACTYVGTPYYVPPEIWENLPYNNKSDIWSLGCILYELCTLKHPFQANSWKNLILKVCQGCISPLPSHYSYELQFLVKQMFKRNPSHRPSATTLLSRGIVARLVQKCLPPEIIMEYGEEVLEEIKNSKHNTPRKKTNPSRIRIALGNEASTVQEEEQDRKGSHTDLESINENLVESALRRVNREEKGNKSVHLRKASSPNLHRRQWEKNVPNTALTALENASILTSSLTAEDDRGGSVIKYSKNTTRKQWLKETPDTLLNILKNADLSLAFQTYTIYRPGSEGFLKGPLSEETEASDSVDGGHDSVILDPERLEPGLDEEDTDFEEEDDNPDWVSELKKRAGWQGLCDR"}, "NEK7(h)": {"biological_target": "NEK7(h) (human, UniProt Q8TDX7 1-302)"}, "PKGδ(h)": {"biological_target": "PKGδ(h) (human)"}, "Ret(V804M)(h)": {"biological_target": "T2, Ret(V804M)(h) (human, UniProt P07949 658-1114, limits assumed)", "T2 sequence (looked up)": "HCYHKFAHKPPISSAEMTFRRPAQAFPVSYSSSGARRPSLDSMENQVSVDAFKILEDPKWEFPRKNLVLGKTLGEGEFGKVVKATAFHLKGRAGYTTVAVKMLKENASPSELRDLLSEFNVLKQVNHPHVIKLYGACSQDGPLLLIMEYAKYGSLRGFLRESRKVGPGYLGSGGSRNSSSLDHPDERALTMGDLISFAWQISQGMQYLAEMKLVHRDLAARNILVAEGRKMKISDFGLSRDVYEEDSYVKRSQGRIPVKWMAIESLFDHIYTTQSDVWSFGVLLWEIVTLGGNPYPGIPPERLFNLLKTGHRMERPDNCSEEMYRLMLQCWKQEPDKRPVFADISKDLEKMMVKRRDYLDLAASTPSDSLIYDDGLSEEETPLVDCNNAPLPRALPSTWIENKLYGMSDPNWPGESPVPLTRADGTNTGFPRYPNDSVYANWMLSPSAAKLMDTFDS"}, "Ros(h)": {"biological_target": "Ros(h) (human, UniProt P08922 1883-2347, limits assumed)"}, "Rsk4(h)": {"biological_target": "Rsk4(h) (human, UniProt Q9UK32 1-745, limits assumed)"}, "SAPK2a(h)": {"biological_target": "SAPK2a(h) (human, UniProt Q16539 1-360)"}, "SIK(h)": {"biological_target": "SIK(h) (human, UniProt P57059 1-783, limits assumed)"}, "Src(T341M)(h)": {"biological_target": "Src(T341M)(h) (human, UniProt P12931 1-536, limits assumed)"}, "Tie2(h)": {"biological_target": "Tie2(h) (human, UniProt Q02763 771-1124, limits assumed)"}, "CHK2(R145W)(h)": {"biological_target": "CHK2(R145W)(h) (human, UniProt O96017 5-543, limits assumed)"}, "cKit(D816H)(h)": {"biological_target": "cKit(D816H)(h) (human, UniProt P10721 544-976)"}, "DAPK1(h)": {"biological_target": "DAPK1(h) (human, UniProt P53355 1-363, limits assumed)"}, "EGFR(T790M,L858R)(h)": {"biological_target": "EGFR(T790M,L858R)(h) (human, UniProt P00533 696-1210, limits assumed)"}, "EphB4(h)": {"biological_target": "T3, EphB4(h) (human, UniProt P54760 561-987, limits assumed)", "T3 sequence (looked up)": "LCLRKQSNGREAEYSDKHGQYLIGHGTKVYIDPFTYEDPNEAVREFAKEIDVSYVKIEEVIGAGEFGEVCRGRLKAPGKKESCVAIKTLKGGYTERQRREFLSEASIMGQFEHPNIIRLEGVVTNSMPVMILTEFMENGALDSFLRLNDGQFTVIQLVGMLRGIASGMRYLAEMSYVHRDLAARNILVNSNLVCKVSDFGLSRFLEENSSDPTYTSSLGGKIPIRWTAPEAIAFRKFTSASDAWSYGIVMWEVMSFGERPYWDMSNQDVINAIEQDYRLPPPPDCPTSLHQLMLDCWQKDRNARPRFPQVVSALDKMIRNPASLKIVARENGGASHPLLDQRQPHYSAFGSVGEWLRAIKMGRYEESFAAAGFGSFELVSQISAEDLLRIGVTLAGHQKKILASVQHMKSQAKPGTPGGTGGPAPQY"}}}
{"binder": "KAFAKLAARLYRKALARQLGVAA", "note": "[MMI-0400]", "values": [{"measurement": "% activity, 100 µM", "setting": "6SK3β(h)", "value": 202, "unit": "%"}, {"measurement": "% activity, 100 µM", "setting": "Hck(h)", "value": 72, "unit": "%"}, {"measurement": "% activity, 100 µM", "setting": "IRAK1(h)", "value": 93, "unit": "%"}, {"measurement": "% activity, 100 µM", "setting": "MSK2(h)", "value": 52, "unit": "%"}, {"measurement": "% activity, 100 µM", "setting": "NEK3(h)", "value": 85, "unit": "%"}, {"measurement": "% activity, 100 µM", "setting": "NEK7(h)", "value": 87, "unit": "%"}, {"measurement": "% activity, 100 µM", "setting": "PKGδ(h)", "value": 90, "unit": "%"}, {"measurement": "% activity, 100 µM", "setting": "Ret(V804M)(h)", "value": 87, "unit": "%"}, {"measurement": "% activity, 100 µM", "setting": "Ros(h)", "value": 99, "unit": "%"}, {"measurement": "% activity, 100 µM", "setting": "Rsk4(h)", "value": 91, "unit": "%"}, {"measurement": "% activity, 100 µM", "setting": "SAPK2a(h)", "value": 85, "unit": "%"}, {"measurement": "% activity, 100 µM", "setting": "SIK(h)", "value": 68, "unit": "%"}, {"measurement": "% activity, 100 µM", "setting": "Src(T341M)(h)", "value": 76, "unit": "%"}, {"measurement": "% activity, 100 µM", "setting": "Tie2(h)", "value": 21, "unit": "%"}, {"measurement": "% activity, 100 µM", "setting": "CHK2(R145W)(h)", "value": 31, "unit": "%"}, {"measurement": "% activity, 100 µM", "setting": "cKit(D816H)(h)", "value": 143, "unit": "%"}, {"measurement": "% activity, 100 µM", "setting": "DAPK1(h)", "value": 36, "unit": "%"}, {"measurement": "% activity, 100 µM", "setting": "EGFR(T790M,L858R)(h)", "value": 78, "unit": "%"}, {"measurement": "% activity, 100 µM", "setting": "EphB4(h)", "value": 28, "unit": "%"}]}
{"binder": "FAKLAARLYRKALARQLGVAA", "note": "[MMI-0300]", "values": [{"measurement": "% activity, 100 µM", "setting": "6SK3β(h)", "value": 205, "unit": "%"}, {"measurement": "% activity, 100 µM", "setting": "Hck(h)", "value": 72, "unit": "%"}, {"measurement": "% activity, 100 µM", "setting": "IRAK1(h)", "value": 95, "unit": "%"}, {"measurement": "% activity, 100 µM", "setting": "MSK2(h)", "value": 56, "unit": "%"}, {"measurement": "% activity, 100 µM", "setting": "NEK3(h)", "value": 92, "unit": "%"}, {"measurement": "% activity, 100 µM", "setting": "NEK7(h)", "value": 84, "unit": "%"}, {"measurement": "% activity, 100 µM", "setting": "PKGδ(h)", "value": 101, "unit": "%"}, {"measurement": "% activity, 100 µM", "setting": "Ret(V804M)(h)", "value": 95, "unit": "%"}, {"measurement": "% activity, 100 µM", "setting": "Ros(h)", "value": 95, "unit": "%"}, {"measurement": "% activity, 100 µM", "setting": "Rsk4(h)", "value": 90, "unit": "%"}, {"measurement": "% activity, 100 µM", "setting": "SAPK2a(h)", "value": 90, "unit": "%"}, {"measurement": "% activity, 100 µM", "setting": "SIK(h)", "value": 66, "unit": "%"}, {"measurement": "% activity, 100 µM", "setting": "Src(T341M)(h)", "value": 70, "unit": "%"}, {"measurement": "% activity, 100 µM", "setting": "Tie2(h)", "value": 26, "unit": "%"}, {"measurement": "% activity, 100 µM", "setting": "CHK2(R145W)(h)", "value": 33, "unit": "%"}, {"measurement": "% activity, 100 µM", "setting": "cKit(D816H)(h)", "value": 126, "unit": "%"}, {"measurement": "% activity, 100 µM", "setting": "DAPK1(h)", "value": 46, "unit": "%"}, {"measurement": "% activity, 100 µM", "setting": "EGFR(T790M,L858R)(h)", "value": 85, "unit": "%"}, {"measurement": "% activity, 100 µM", "setting": "EphB4(h)", "value": 44, "unit": "%"}]}
